Measurements: the RNAGym collection of RNA variant scans (doi:10.1021/acssynbio.7b00057)

B1: Pistol ribozyme (parent)
chain: GGGUCGUUGUUCCAUAAUCGCGUGGAUAUGGCACGCAAGUUUCUACCGGGCACCGUAAAUGUCCGACUGGAGCCGUUCGGGCGGCUAUAAACAGACCUCAGGCCCGAAGCGUGGCGGCACCUGCCGCCGGUGGUAAAAAAGAUCGGAAGAGCACACGUCU

Variants of: B1
Experiment: aptazyme ON/OFF ratio, guanine; higher = stronger switching; co-transcriptional cleavage with and without guanine

Variant	aptazyme ON/OFF ratio
GGGUCGCUCAGUAAUAAUCGCGUGGAUAUGGCACGCAAGUUUCUACCGGGCACCGUAAAUGUCCGACUGGAGCCGUUCGGGCGGCUAUAAACAGACCUCAGGCCCGAAGCGUGGCGGCACCUGCCGCCGGUGGUAAAAAAGAUCGGAAGAGCACACGUCU [U7C G9C U10A U11G C12U C13A]	1.12
GGGUCGCUCAGCGAUAAUCGCGUGGAUAUGGCACGCAAGUUUCUACCGGGCACCGUAAAUGUCCGACUGGAGCCGUUCGGGCGGCUAUAAACAGACCUCAGGCCCGAAGCGUGGCGGCACCUGCCGCCGGUGGUAAAAAAGAUCGGAAGAGCACACGUCU [U7C G9C U10A U11G C13G]	1.07
GGGUCGCUCAGCUAUAAUCGCGUGGAUAUGGCACGCAAGUUUCUACCGGGCACCGUAAAUGUCCGACUGGAGCCGUUCGGGCGGCUAUAAACAGACCUCAGGCCCGAAGCGUGGCGGCACCUGCCGCCGGUGGUAAAAAAGAUCGGAAGAGCACACGUCU [U7C G9C U10A U11G C13U]	1.09
GGGUCGCUCAGCAAUAAUCGCGUGGAUAUGGCACGCAAGUUUCUACCGGGCACCGUAAAUGUCCGACUGGAGCCGUUCGGGCGGCUAUAAACAGACCUCAGGCCCGAAGCGUGGCGGCACCUGCCGCCGGUGGUAAAAAAGAUCGGAAGAGCACACGUCU [U7C G9C U10A U11G C13A]	1.09
GGGUCGCUCACCGAUAAUCGCGUGGAUAUGGCACGCAAGUUUCUACCGGGCACCGUAAAUGUCCGACUGGAGCCGUUCGGGCGGCUAUAAACAGACCUCAGGCCCGAAGCGUGGCGGCACCUGCCGCCGGUGGUAAAAAAGAUCGGAAGAGCACACGUCU [U7C G9C U10A U11C C13G]	1.03
GGGUCGCUCACCUAUAAUCGCGUGGAUAUGGCACGCAAGUUUCUACCGGGCACCGUAAAUGUCCGACUGGAGCCGUUCGGGCGGCUAUAAACAGACCUCAGGCCCGAAGCGUGGCGGCACCUGCCGCCGGUGGUAAAAAAGAUCGGAAGAGCACACGUCU [U7C G9C U10A U11C C13U]	1.02
GGGUCGCUCCAACAUAAUCGCGUGGAUAUGGCACGCAAGUUUCUACCGGGCACCGUAAAUGUCCGACUGGAGCCGUUCGGGCGGCUAUAAACAGACCUCAGGCCCGAAGCGUGGCGGCACCUGCCGCCGGUGGUAAAAAAGAUCGGAAGAGCACACGUCU [U7C G9C U10C U11A C12A]	1.09
GGGUCGCUCCACCAUAAUCGCGUGGAUAUGGCACGCAAGUUUCUACCGGGCACCGUAAAUGUCCGACUGGAGCCGUUCGGGCGGCUAUAAACAGACCUCAGGCCCGAAGCGUGGCGGCACCUGCCGCCGGUGGUAAAAAAGAUCGGAAGAGCACACGUCU [U7C G9C U10C U11A]	0.975
GGGUCGCUCAGUCAUAAUCGCGUGGAUAUGGCACGCAAGUUUCUACCGGGCACCGUAAAUGUCCGACUGGAGCCGUUCGGGCGGCUAUAAACAGACCUCAGGCCCGAAGCGUGGCGGCACCUGCCGCCGGUGGUAAAAAAGAUCGGAAGAGCACACGUCU [U7C G9C U10A U11G C12U]	1.05
GGGUCGCUCAGACAUAAUCGCGUGGAUAUGGCACGCAAGUUUCUACCGGGCACCGUAAAUGUCCGACUGGAGCCGUUCGGGCGGCUAUAAACAGACCUCAGGCCCGAAGCGUGGCGGCACCUGCCGCCGGUGGUAAAAAAGAUCGGAAGAGCACACGUCU [U7C G9C U10A U11G C12A]	1.11
GGGUCGCUCAGGCAUAAUCGCGUGGAUAUGGCACGCAAGUUUCUACCGGGCACCGUAAAUGUCCGACUGGAGCCGUUCGGGCGGCUAUAAACAGACCUCAGGCCCGAAGCGUGGCGGCACCUGCCGCCGGUGGUAAAAAAGAUCGGAAGAGCACACGUCU [U7C G9C U10A U11G C12G]	1.29
GGGUCGCUCAGCCAUAAUCGCGUGGAUAUGGCACGCAAGUUUCUACCGGGCACCGUAAAUGUCCGACUGGAGCCGUUCGGGCGGCUAUAAACAGACCUCAGGCCCGAAGCGUGGCGGCACCUGCCGCCGGUGGUAAAAAAGAUCGGAAGAGCACACGUCU [U7C G9C U10A U11G]	1.09
GGGUCGCUCCUGCAUAAUCGCGUGGAUAUGGCACGCAAGUUUCUACCGGGCACCGUAAAUGUCCGACUGGAGCCGUUCGGGCGGCUAUAAACAGACCUCAGGCCCGAAGCGUGGCGGCACCUGCCGCCGGUGGUAAAAAAGAUCGGAAGAGCACACGUCU [U7C G9C U10C C12G]	1.07
GGGUCGCUCCUACAUAAUCGCGUGGAUAUGGCACGCAAGUUUCUACCGGGCACCGUAAAUGUCCGACUGGAGCCGUUCGGGCGGCUAUAAACAGACCUCAGGCCCGAAGCGUGGCGGCACCUGCCGCCGGUGGUAAAAAAGAUCGGAAGAGCACACGUCU [U7C G9C U10C C12A]	1.04
GGGUCGCUCCUUCAUAAUCGCGUGGAUAUGGCACGCAAGUUUCUACCGGGCACCGUAAAUGUCCGACUGGAGCCGUUCGGGCGGCUAUAAACAGACCUCAGGCCCGAAGCGUGGCGGCACCUGCCGCCGGUGGUAAAAAAGAUCGGAAGAGCACACGUCU [U7C G9C U10C C12U]	1.09
GGGUCGCUCCUGUAUAAUCGCGUGGAUAUGGCACGCAAGUUUCUACCGGGCACCGUAAAUGUCCGACUGGAGCCGUUCGGGCGGCUAUAAACAGACCUCAGGCCCGAAGCGUGGCGGCACCUGCCGCCGGUGGUAAAAAAGAUCGGAAGAGCACACGUCU [U7C G9C U10C C12G C13U]	1.08
GGGUCGCUCCUGGAUAAUCGCGUGGAUAUGGCACGCAAGUUUCUACCGGGCACCGUAAAUGUCCGACUGGAGCCGUUCGGGCGGCUAUAAACAGACCUCAGGCCCGAAGCGUGGCGGCACCUGCCGCCGGUGGUAAAAAAGAUCGGAAGAGCACACGUCU [U7C G9C U10C C12G C13G]	1.12
GGGUCGCUCCUGAAUAAUCGCGUGGAUAUGGCACGCAAGUUUCUACCGGGCACCGUAAAUGUCCGACUGGAGCCGUUCGGGCGGCUAUAAACAGACCUCAGGCCCGAAGCGUGGCGGCACCUGCCGCCGGUGGUAAAAAAGAUCGGAAGAGCACACGUCU [U7C G9C U10C C12G C13A]	1.09
